Residue numbers refer to the chain shown, from its start.
Legend:
Experiment in all cases: FACS, MEF-DKO cells, 3 µg/ml
[1] = target: T1, hiR2-FL-T522V-T7 (human, UniProt Q6PJF5 1-856)
T1 sequence: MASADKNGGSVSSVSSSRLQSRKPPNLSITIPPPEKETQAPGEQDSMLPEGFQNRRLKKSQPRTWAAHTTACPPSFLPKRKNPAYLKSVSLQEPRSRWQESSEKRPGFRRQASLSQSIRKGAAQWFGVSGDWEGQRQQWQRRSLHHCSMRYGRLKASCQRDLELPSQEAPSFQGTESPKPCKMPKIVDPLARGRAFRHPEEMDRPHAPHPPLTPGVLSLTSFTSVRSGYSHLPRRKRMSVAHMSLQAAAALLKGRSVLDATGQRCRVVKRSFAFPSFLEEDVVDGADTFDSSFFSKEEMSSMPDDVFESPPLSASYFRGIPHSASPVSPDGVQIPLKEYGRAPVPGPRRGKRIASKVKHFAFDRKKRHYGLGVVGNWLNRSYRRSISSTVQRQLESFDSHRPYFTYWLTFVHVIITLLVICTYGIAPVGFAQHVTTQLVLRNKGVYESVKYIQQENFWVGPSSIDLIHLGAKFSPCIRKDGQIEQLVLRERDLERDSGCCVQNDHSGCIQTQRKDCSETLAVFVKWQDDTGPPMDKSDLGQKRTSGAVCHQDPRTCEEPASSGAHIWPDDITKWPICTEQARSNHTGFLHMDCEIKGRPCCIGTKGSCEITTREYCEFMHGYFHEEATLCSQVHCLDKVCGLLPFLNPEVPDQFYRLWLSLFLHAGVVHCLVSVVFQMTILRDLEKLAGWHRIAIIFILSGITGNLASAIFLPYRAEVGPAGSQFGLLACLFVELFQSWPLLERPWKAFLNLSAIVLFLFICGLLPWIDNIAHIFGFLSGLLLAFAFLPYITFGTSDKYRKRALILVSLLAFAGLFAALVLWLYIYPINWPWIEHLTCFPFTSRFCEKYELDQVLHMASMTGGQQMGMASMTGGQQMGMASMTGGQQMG

[2] = target: T2, hiR2-FL-F523W-T7 (human, UniProt Q6PJF5 1-856)
T2 sequence: T1 sequence with V522T, F523W

[3] = target: T3, hiR2-FL-D528I-T7 (human, UniProt Q6PJF5 1-856)
T3 sequence: T1 sequence with V522T, D528I

Measured: loss of binding vs wild type

B1: antibody 48 (antibody, V domains shown)
VH: QVQLQQSGTELVRPGTSVKVSCKASGYAFTNYLIEWVKQRPGQGLEWIGVINPGSGFTKYNEKFKGKATLTADKSSSTVYMHLSSLTSEDSAVYFCARGLYRAMDYWGQGTSVTVSS
VL: DIQMTQSPASQSASLGESVTITCLASQTIATWLAWYQQKPGKSPQLLIYGATTLADGVPSRFSGGGSGTKFSFKISSLQAEDFVSYYCQQLYSTPYTFGGGTKLEIK
notes: mouse IgG, kappa light chain; also called clone #48; purified antibody 48
≥ 30%: all assays above

B2: antibody 50 (antibody, V domains shown)
VH: B1 VH with T9A, T16A, T30S, V79A, H82Q
VL: B1 VL with A30G, G50A, T52A, T53S, S85N, L91I
notes: mouse IgG, kappa light chain; also called clone #50; purified antibody 50
≥ 30%: all assays above
